Where a chain is given by its changes, count along the chain named.
How the values were obtained:
[1] = tested on: T1, H-NS A2 S2A (Shewanella oneidensis MR-1), ORF:b65510ad; test: EMSA
T1 sequence: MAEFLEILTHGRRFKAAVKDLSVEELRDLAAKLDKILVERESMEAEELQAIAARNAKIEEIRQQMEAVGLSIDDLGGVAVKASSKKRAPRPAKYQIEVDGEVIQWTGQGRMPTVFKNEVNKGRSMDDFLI

[2] = tested on: T2, H-NS A42 S42A (Shewanella oneidensis MR-1), ORF:b65510ad; test: EMSA
T2 sequence: T1 sequence with A2S, S42A

[3] = tested on: T3, H-NS A71 S71A (Shewanella oneidensis MR-1), ORF:b65510ad; test: EMSA
T3 sequence: T1 sequence with A2S, S71A

[4] = tested on: T1, H-NS A2 S2A (Shewanella oneidensis MR-1), ORF:b65510ad; test: analytical ultracentrifugation
[5] = tested on: T2, H-NS A42 S42A (Shewanella oneidensis MR-1), ORF:b65510ad; test: analytical ultracentrifugation
[6] = tested on: T3, H-NS A71 S71A (Shewanella oneidensis MR-1), ORF:b65510ad; test: analytical ultracentrifugation

Measured: binding

GATTTTCTAGTGACAGAAGGTTTTAGCGTTGATAATGCCAAATATGCTGAATTATTTTTGAGACCGAGTAAATTTCTTAGGGGACCAAAAAAACGCATATAATACAATGGATAATGCAATTTAGGTGAGCAAAGGGGACCGTTTTTACCCCGTTTATTCATGCTTCATAACCATCTAATCTCAGGGTTGTAGACGTTTATTCACAACTCTGAGGACGATTATGAACACAACTCTCAC (double strand) [alpA promoter (PalpA)]
binds: [1] | [2] | [3] | [4] | [5] | [6]
